No end group written: not given here.
Target: recombinant p38α (Homo sapiens, UniProt Q16539)
Assay: GST pull-down of recombinant p38α by truncated Gadd45α portions
Format: binding
Conditions: Gadd45α portions fused to GST, in vitro
Description: This example describes a Gadd45α 71-85 polypeptide fused to a cell-penetrating peptide (11R) and its ability to block the T cell-specific alternative p38 activation pathway. The minimal region of Gadd45α capable of binding to p38 was identified by fusing various truncated portions of Gadd45α to GST and using the product to pull down recombinant p38α in vitro.

Sequence of recombinant p38α (Q16539 whole entry, the tested form may be a part): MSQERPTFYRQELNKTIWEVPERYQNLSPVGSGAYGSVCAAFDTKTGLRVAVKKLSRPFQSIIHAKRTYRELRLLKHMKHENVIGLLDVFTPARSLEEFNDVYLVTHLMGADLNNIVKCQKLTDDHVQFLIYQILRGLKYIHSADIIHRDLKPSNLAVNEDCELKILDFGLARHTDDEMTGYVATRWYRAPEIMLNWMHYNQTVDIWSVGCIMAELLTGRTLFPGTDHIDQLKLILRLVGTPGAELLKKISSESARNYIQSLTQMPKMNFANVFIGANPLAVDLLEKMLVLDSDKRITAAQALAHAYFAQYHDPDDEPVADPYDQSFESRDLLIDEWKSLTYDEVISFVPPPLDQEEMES

“71-85 fragment: residues 71-85 of Gadd45α fused to GST, used to pull down recombinant p38α (LQIHFTLIQAFCCEN; cysteine pairing not given here; also: fused to GST; UniProt P24522 71-85, looked up, fragment)” was tested, and the “pull down of recombinant p38α” value was “pulled down p38α as well as the full length protein”.
